From patent US20050043221A1 (BROWN UNIVERSITY, published 2005)

B3: recombinant decorin core polypeptide (no side chains), vaccinia system (other, UniProt P07585 31-359, looked up, not shown: small tags and cut ends)
chain: DEASGIGPEVPDDRDFEPSLGPVCPFRCQCHLRVVQCSDLGLDKVPKDLPPDTTLLDLQNNKITEIKDGDFKNLKNLHALILVNNKISKVSPGAFTPLVKLERLYLSKNQLKELPEKMPKTLQELRAHENEITKVRKVTFNGLNQMIVIELGTNPLKSSGIENGAFQGMKKLSYIRIADTNITSIPQGLPPSLTELHLDGNKISRVDAASLKGLNNLAKLGLSFNSISAVDNGSLANTPHLRELHLDNNKLTRVPGGLAEHKYIQVVYLHNNNISVVGSSDFCPPGHNTKKASYSGVSLFSNPVQYWEIQPSTFRCVYVRSAIQLGNYK
B4: recombinant decorin proteoglycan (core and side chains), vaccinia system (other, UniProt P07585 31-359, looked up, not shown: small tags and cut ends)
chain: DEASGIGPEVPDDRDFEPSLGPVCPFRCQCHLRVVQCSDLGLDKVPKDLPPDTTLLDLQNNKITEIKDGDFKNLKNLHALILVNNKISKVSPGAFTPLVKLERLYLSKNQLKELPEKMPKTLQELRAHENEITKVRKVTFNGLNQMIVIELGTNPLKSSGIENGAFQGMKKLSYIRIADTNITSIPQGLPPSLTELHLDGNKISRVDAASLKGLNNLAKLGLSFNSISAVDNGSLANTPHLRELHLDNNKLTRVPGGLAEHKYIQVVYLHNNNISVVGSSDFCPPGHNTKKASYSGVSLFSNPVQYWEIQPSTFRCVYVRSAIQLGNYK
modifications: glycosaminoglycan side chain
notes: also called DEC-PG; DECPG

Columns and labels:
[1] = target: B3; assay: blot overlay with 35S in vitro translated sarcoglycan
[2] = target: B4; assay: as above
[3] = target: T1, recombinant human biglycan core polypeptide (no side chains), His-tagged, vaccinia system (human, UniProt P21810 38-368); assay: as above
T1 construct: GAG attachment sites present but not substituted; also called BGN; core biglycan; not shown: N-terminal cassette His6-[Glu-Ser]-factor Xa site-[Leu-Glu]
T1 sequence: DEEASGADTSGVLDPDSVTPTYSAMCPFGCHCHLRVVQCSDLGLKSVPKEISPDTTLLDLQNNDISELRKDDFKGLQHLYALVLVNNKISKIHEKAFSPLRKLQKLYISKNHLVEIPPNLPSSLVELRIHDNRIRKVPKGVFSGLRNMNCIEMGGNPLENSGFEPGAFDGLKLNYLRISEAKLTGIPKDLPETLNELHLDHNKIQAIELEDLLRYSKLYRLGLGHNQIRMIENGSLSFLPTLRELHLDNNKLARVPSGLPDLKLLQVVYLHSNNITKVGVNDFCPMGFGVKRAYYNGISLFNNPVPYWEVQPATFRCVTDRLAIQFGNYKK

[4] = target: T1, recombinant human biglycan core …; assay: co-immunoprecipitation in solution with anti-biglycan or anti-poly-His, protein G beads
[5] = target: B3; assay: blot overlay
[6] = target: T2, α-sarcoglycan, 35S-methionine-labelled, in vitro translated (human, UniProt Q16586 1-387, limits assumed); assay: blot overlay with 35S in vitro translated sarcoglycan
T2 construct: also called alpha-sarcoglycan
T2 sequence (looked up): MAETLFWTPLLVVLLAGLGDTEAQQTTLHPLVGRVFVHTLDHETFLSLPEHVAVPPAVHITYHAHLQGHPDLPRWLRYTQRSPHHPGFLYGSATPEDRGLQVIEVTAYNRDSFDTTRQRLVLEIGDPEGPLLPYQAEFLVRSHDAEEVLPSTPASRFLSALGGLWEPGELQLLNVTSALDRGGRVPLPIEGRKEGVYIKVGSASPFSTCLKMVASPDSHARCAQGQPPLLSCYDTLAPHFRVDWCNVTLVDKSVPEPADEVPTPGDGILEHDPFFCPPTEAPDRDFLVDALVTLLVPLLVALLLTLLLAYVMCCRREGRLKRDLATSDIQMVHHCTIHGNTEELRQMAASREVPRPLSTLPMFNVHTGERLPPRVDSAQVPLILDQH

B1: γ-sarcoglycan, 35S-methionine-labelled, in vitro translated (other, human, UniProt Q13326 1-291, looked up)
chain: MVREQYTTATEGICIERPENQYVYKIGIYGWRKRCLYLFVLLLLIILVVNLALTIWILKVMWFSPAGMGHLCVTKDGLRLEGESEFLFPLYAKEIHSRVDSSLLLQSTQNVTVNARNSEGEVTGRLKVGPKMVEVQNQQFQINSNDGKPLFTVDEKEVVVGTDKLRVTGPEGALFEHSVETPLVRADPFQDLRLESPTRSLSMDAPRGVHIQAHAGKIEALSQMDILFHSSDGMLVLDAETVCLPKLVQGTWGPSGSSQSLYEICVCPDGKLYLSVAGVSTTCQEHNHICL
notes: also called gamma sarcoglycan
B1: no binding [1]; no binding [2]; binds [3].

B2: β-sarcoglycan, 35S-methionine-labelled, in vitro translated (other, human, UniProt Q16585 1-318, looked up)
chain: MAAAAAAAAEQQSSNGPVKKSMREKAVERRSVNKEHNSNFKAGYIPIDEDRLHKTGLRGRKGNLAICVIILLFILAVINLIITLVIWAVIRIGPNGCDSMEFHESGLLRFKQVSDMGVIHPLYKSTVGGRRNENLVITGNNQPIVFQQGTTKLSVENNKTSITSDIGMQFFDPRTQNILFSTDYETHEFHLPSGVKSLNVQKASTERITSNATSDLNIKVDGRAIVRGNEGVFIMGKTIEFHMGGNMELKAENSIILNGSVMVSTTRLPSSSSGDQLGSGDWVRYKLCMCADGTLFKVQVTSQNMGCQISDNPCGNTH
notes: also called beta-sarcoglycan
B2: no binding [4]; no binding [5].

B3: no binding [6].

B4: no binding [6].
